For one substance, extinction results are on record in US6573081.

The target of assay [1] is Porcine circovirus (PCV) grown in PS cell culture (porcine circovirus). Kind of assay: ELISA, PCV supernatant adsorbed to the plate at virus dilution 1:200.
The target is the same in assay [2]. The assay is described as follows: ELISA, PCV supernatant adsorbed to the plate at virus dilution 1:400.
For assay [3] the target is unchanged. The assay is described as follows: ELISA, PCV supernatant adsorbed to the plate at virus dilution 1:800.
For assay [4] the target is unchanged. Kind of assay: ELISA, PCV supernatant adsorbed to the plate at virus dilution 1:1600.
Assay [5] shares this target. Kind of assay: ELISA, PCV supernatant adsorbed to the plate at virus dilution 1:3200.
For assay [6] the target is unchanged. Kind of assay: ELISA, PCV supernatant adsorbed to the plate at virus dilution 1:6400.

Take “Human immunoglobulin concentrate (Beriglobin P)”: the extinction was more than 2 extinction in assay [1]; 1.98 extinction in assay [2]; 1.17 extinction in assay [3]; 0.726 extinction in assay [4]; 0.268 extinction in assay [5]; 0.381 extinction in assay [6].
